The target of data set [1] is T1, hnRNPA1 (UniProt P09651 1-251+304-372, internal_change). Description: EMSA; 100 mM Na+; EMSA: 10 mM Tris-HCl pH 7.0, 100 mM NaCl, 0.1 mg/mL BSA, 5 mM DTT, 10% glycerol, 30 min room temperature; 8% native PAGE, 1x TBE + 20 mM NaCl, 80 V, 4 C. Particulars: protein: recombinant; (pET-15b, Ni-NTA); label: 32P (T4 PNK, 5'); intermolecular dimeric parallel G-quadruplex, 2 strands. (In general: Mobility shift assays separate free from complexed probe on a gel.)

Data set [2] has as its target T1, hnRNPA1. Description: CD; peak shift 265 to 260 nm on protein addition; Na+; EMSA: 10 mM Tris-HCl pH 7.0, 100 mM NaCl, 0.1 mg/mL BSA, 5 mM DTT, 10% glycerol, 30 min room temperature; 8% native PAGE, 1x TBE + 20 mM NaCl, 80 V, 4 C. Particulars: protein: recombinant; (pET-15b, Ni-NTA); label: 32P (T4 PNK, 5'); intermolecular dimeric parallel G-quadruplex, 2 strands.

T1 sequence (P09651 other isoform, or with tags, fused parts or gaps): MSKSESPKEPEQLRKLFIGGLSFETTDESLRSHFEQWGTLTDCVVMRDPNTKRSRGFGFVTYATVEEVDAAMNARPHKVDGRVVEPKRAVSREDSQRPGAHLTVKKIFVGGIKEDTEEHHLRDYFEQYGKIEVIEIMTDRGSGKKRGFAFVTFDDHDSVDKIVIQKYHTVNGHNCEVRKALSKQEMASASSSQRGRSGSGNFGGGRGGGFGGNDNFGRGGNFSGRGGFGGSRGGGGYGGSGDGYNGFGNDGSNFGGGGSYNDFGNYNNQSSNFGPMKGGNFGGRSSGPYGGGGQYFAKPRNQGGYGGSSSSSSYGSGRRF

For the molecule UUAGGGUUAGGG (structured_RNA) [Native-RNA-Gq], the binding result with hnRNPA1 [1] is recorded as “binds”.
As to UUAGGGUUAGGG (XNA, 2'-O-methyl at positions 7-9 (UmUmAm)) [2'-O-Me-loop-Gq], the binding result in the data set with hnRNPA1 [2] is on record as “binds”.

These data come from PMC6017123, “HnRNPA1 Specifically Recognizes the Base of Nucleotide at the Loop of RNA G-Quadruplex”.
